Results reported in patent publication US20260139017A1, “COMPOSITIONS AND METHODS USING REELIN IN ALZHEIMER'S DISEASE” (The General Hospital Corporation, priority 2022, published 2026).

B1: Il2ss-flagMini-RELNFspCR50R5-6CtermH3447R (protein)
chain: MYRMQLLSCIALSLALVTNSGGDYKDDDDKTGGAAGYYPRFSPFFFLCTHHGELEGDGEQGEVLISLHIAGNPTYYVPGQEYHVTISTSTFFDGLLVTGLYTSTSVQASQSIGGSSAFGFGIMSDHQFGNQFMCSVVASHVSHLPTTNLSFIWIAPPAGTGCVNFMATATHRGQVIFKDALAQQLCEQGAPTDVTVHPHLAEIHSDSIILRDDFDSYHQLQLNPNIWVECNNCETGEQCGAIMHGNAVTFCEPYGPRELITTGLNTTTASVLQFSIGSGSCRFSYSDPSIIVLYAKNNSADWIQLEKIRAPSNVSTIIHILYLPEDAKGENVQFQWKQENLRVGEVYEACWALDNILIINGSRGGQTNATRFRLWQPYNNGKKEEIWIVDDFIIDGNNVNNPVMLLDTFDFGPREDNWFFYPGGNIGLYCPYSSKGAPEEDSAMVFVSNEVGEHSITTRDLNVNENTIIQFEINVGCSTDSSSADPVRLEFSRDFGATWHLLLPLCYHSSSHVSSLCSTEHHPSSTYYAGTMQGWRREVVHFGKLHLCGSVRFRWYQGFYPAGSQPVTWAIDNVYIGPQCEEMCNGQGSCINGTKCICDPGYSGPTCKISTKNPDFLKDDFEGQLESDRFLLMSGGKPSRKCGILSSGNNLFFNEDGLRMLMTRDLDLSHARFVQFFMRLGCGKGVPDPRSQPVLLQYSLNGGLSWSLLQEFLFSNSSNVGRYIALEIPLKARSGSTRLRWWQPSENGHFYSPWVIDQILIGGNISGNMVLEDDFTTLDSRKWLLHPGGTKMPVCGSTGDALVFIEKASTRYVVSTDVAVNEDSFLQIDFAVSCSVTDSCYAIELEYSVDLGLSWHPLVRDCLPTNVECSRYHLQRILVSDTFNKWTRITLPLPPYTRSQATRFRWHQPAPFDKQQTWAIDNVYIGDGCIDMCSGHGRCIQGNCVCDEQWGGLYCDDPETSLPTQLKDNFNRAPSSQNWLTVNGGKLSTVCGAVASGMALHFSGGCSRLLVTVDLNLTNAEFIQFYFMYGCLITPNNRNQGVLLEYSVNGGITWNLLMEIFYDQYSKPGFVNILLPPDAKEIATRFRWWQPRHDGLDQNDWAIDNVLISGSASTRKQNYMMNFSRQHGLRRFYNRRRRSLRRYP
B2: IL2ss-6xHis-hReelin R3-R6 CT-H3447R (protein)
chain: MYRMQLLSCIALSLALVTNSGGHHHHHHGGSRFSSTAPVLLQYSHDAGMSWFLVKEGCYPASAGKGCEGNSRELSEPTMYHTGDFEEWTRITIVIPRSLASSKTRFRWIQESSSQKNVPPFGLDGVYISEPCPSYCSGHGDCISGVCFCDLGYTAAQGTCVSNVPNHNEMFDRFEGKLSPLWYKITGAQVGTGCGTLNDGKSLYFNGPGKREARTVPLDTRNIRLVQFYIQIGSKTSGITCIKPRTRNEGLIVQYSNDNGILWHLLRELDFMSFLEPQIISIDLPQDAKTPATAFRWWQPQHGKHSAQWALDDVLIGMNDSSQTGFQDKFDGSIGGGTLDSRKWLLHPGGTKMPVCGSTGDALVFIEKASTRYVVSTDVAVNEDSFLQIDFAVSCSVTDSCYAIELEYSVDLGLSWHPLVRDCLPTNVECSRYHLQRILVSDTFNKWTRITLPLPPYTRSQATRFRWHQPAPFDKQQTWAIDNVYIGDGCIDMCSGHGRCIQGNCVCDEQWGGLYCDDPETSLPTQLKDNFNRAPSSQNWLTVNGGKLSTVCGAVASGMALHFSGGCSRLLVTVDLNLTNAEFIQFYFMYGCLITPNNRNQGVLLEYSVNGGITWNLLMEIFYDQYSTGGSGGSTRKQNYMMNFSRQHGLRRFYNRRRRSLRRYP

Columns and labels:
[1] = tested on: pDAB1 (Tyr232); test: HRECs treated 5 minutes with HEK 293T-derived mini-RELN media, pDAB1 western blot; format: cell-based, human; conditions: HEK 293T-derived media 1:1, 1:4, 1:14, 5 minutes
Method: The effect of in vitro treatment with RELN or miniRELN protein was also evaluated. HRECs were cultured in EBM-2 media enriched with EGM-2 Single Quots (Lonza) at 37° C. and 5% CO2 and experimentally tested at passage 7. 24 h prior experiment, cells were plated on a 6-well plate at 500,000 cells/mL. Two hours before the experiment, the cells were washed with PBS to remove residual growth media and then incubated with a starving media including EBM-2, 1% GlutaMax+0,2% Normicin. Treatments was conducted using media derived from HEK 293T cells transiently transfected for 24 h with different mini-RELN constructs in the presence of Lipofectamine 2000. HEK-derived Lipofectamine2000-media was used as negative control. HEK 293T-derived media was tested at different ratio 1:1, 1:4, and 1:14 (Transfected media:Starving media). Each treatment was incubated for 5 minutes and cells were subsequently harvested in lysis buffer was applied constituted of RIPA (Cell signaling), proteases inhibitors (cOmplete™, Mini, EDTA-free Protease Inhibitor Cocktail, Roche), phosphatases inhibitors (PhosSTOP, Roche), 1 μL of proteasome inhibitor MG-132 10 mM, 1% Triton X 100. The lysates were scraped and centrifugated at 15000 rpm for 10 minutes at 4° C. Total protein levels were quantified via BCA assay. […] We detected pDAB1 (Tyr232; 1:1000, rabbit, #3325 Cell signaling), and Beta actin (1:5000, mouse, #66009-1-Ig, Proteintech. Antibodies were diluted using Intercept® (TBS) Blocking Buffer and incubated overnight at 4C under gentle shaking. Prior secondary antibody incubation, membranes were washes 2 times using TBS-T for 10 minutes. As secondary antibodies we used IR Dye 800n CW Goat-anti-Rabbit (925-32211, Licor) and IR Dye 680 CW Goat-anti-Mouse (925-68070, Licor) both diluted 1:10000 in blocking buffer for 1 h at room temperature under gentle shaking. Membranes were washed three times with TBS-T prior IR detection using Odyssey imager. To quantify the results, each band was quantified using ImageJ and data expressed as pDAB1:βActin ratio normalized to the control. […]

[2] = tested on: pDAB1 (Tyr232); test: HRECs treated 5 minutes with recombinant mini-RELN, pDAB1 western blot; format: cell-based, human; conditions: 5 minutes, 4 ug/mL recombinant protein
Method: For in vitro screening of constructs using recombinant mini-RELN on HRECs, the cells were cultured in EBM-2 media enriched with EGM-2 Single Quots (Lonza) at 37° C. and 5% CO2 and experimentally tested at passage 7. 24 h prior experiment, cells were plated on a 6-well plate at 500,000 cells/mL. Two hours before the experiment, the cells were washed with PBS to remove residual growth media and then incubated with a starving media including EBM-2, 1% GlutaMax+0.2% Normicin. Treatments was conducted using recombinant mini RELN constructs obtained from Innovagen and Recombinant Mouse Reelin Protein from R&D systems (3820-MR-025/CF). Each treatment was incubated for 5 minutes at 4 ug/mL concentration and cells were subsequently harvested in lysis buffer was applied constituted of RIPA (Cell signaling), proteases inhibitors (cOmplete™, Mini, EDTA-free Protease Inhibitor Cocktail, Roche), phosphatases inhibitors (PhosSTOP, Roche), 1 μL of proteasome inhibitor MG-132 10 mM, 1% Triton X 100. The lysates were scraped and centrifugated at 15000 rpm for 10 minutes at 4° C. Total protein levels were quantified via BCA assay. For Western Blotting, 3.5 ug protein homogenates were prepared under reducing and denaturing conditions using Laemmli buffer enriched with 10 mM DTT and 5 min boiling. Samples were electrophoretically separated in a 4-20% Gel at 90V and protein transferred to a PVDF membrane using iBlot™ 2 Dry Blotting System. The membrane was blocked using Intercept® (TBS) Blocking Buffer for 2 hours. We detected pDAB1 (Tyr232; 1:1000, rabbit, #3325 Cell signaling), and total protein staining (Licor). Antibodies were diluted using Intercept® (TBS) Blocking Buffer and incubated overnight at 4C under gentle shaking. Prior secondary antibody incubation, membranes were washed 2 times using TBS-T for 10 minutes. As secondary antibodies we used IR Dye 800n CW Goat-anti-Rabbit (925-32211, Licor) diluted 1:10000 in blocking buffer for 1 h at room temperature under gentle shaking. Membranes were washed three times with TBST-T prior IR detection using Odyssey imager. To quantify the results, each band was quantified using ImageJ and data expressed as pDABL:total protein ratio normalized to the control.

Row | Molecule | pDAB1 / Dab1 signaling activation [1] | pDAB1 levels [2]
1 | B1 | more robust compared to controls and compared to 233A | –
2 | B2 | efficacy | increased pDAB1 levels
